This is an account of results in US20260356955 (published 2026).

The target in assay [1] is human KLRB1 ECD (human). Description: SPR. In general terms: In SPR one partner is held on a chip, and binding of the other changes the refractive index at the surface.
In another assay the target is human KLRB1 on CHO-K1 (human). Description: FACS. A general note: A flow cytometer gives signals particle by particle.
The target in assay [2] is T1, cynomolgus KLRB1 on CHO-K1 (cynomolgus).
T1 chain: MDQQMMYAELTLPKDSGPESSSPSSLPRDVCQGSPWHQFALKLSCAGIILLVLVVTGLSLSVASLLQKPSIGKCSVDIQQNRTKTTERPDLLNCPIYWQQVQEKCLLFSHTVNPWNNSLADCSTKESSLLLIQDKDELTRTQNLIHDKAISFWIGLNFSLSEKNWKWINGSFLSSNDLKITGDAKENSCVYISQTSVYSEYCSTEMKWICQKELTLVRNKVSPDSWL
Description: FACS.

Assay [3] has as its target human KLRB1 ECD (human). Description: ELISA. A general note: An ELISA detects its analyte on a solid surface through an enzyme-linked reagent.

Chain of human KLRB1 on CHO-K1 (human) (chain, as listed by the source): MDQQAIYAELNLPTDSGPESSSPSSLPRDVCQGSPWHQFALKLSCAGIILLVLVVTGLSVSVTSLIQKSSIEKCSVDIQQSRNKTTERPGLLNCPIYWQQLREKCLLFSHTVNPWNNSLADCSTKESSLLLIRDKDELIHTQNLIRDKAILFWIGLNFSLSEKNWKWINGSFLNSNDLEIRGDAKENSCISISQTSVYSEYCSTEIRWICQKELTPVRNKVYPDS
Chain of human KLRB1 ECD (human) (chain, as listed by the source): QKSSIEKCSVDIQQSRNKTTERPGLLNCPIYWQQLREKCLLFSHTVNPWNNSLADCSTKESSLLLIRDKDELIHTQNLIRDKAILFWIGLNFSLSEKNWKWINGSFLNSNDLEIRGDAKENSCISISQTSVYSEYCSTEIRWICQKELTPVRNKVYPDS

B1: 5B1B11 chimeric (antibody, V domains shown)
VH: QVQLQQPGAELVKPGASVKLSCKASGYTFTNYWMHWVKQRPGQGLEWIGEINPSNGRTNFNEKFKSKATLTVDKSSSTAYMQLSSLTSEDSAVYYCARSYDSYYAAVDYWGQGTSVTVSS
VL: QIVLTQSPAIMSASLGEEITLTCSASSSVSYMHWYQQKSGTSPKLLIYTTSNLPSGVPSRFSGSGSGTFYSLTISSVEAEDAADYYCHQWSTYPYTFGGGTKLEIK
B1: the affinity with human KLRB1 ECD [1], expressed as Kd, was 0.255 nM.

B2: Hu50A8F2-15 (antibody, V domains shown)
VH: QVQLVQSGAEVKKPGASVKVSCKASGYTFIDYYINWVRQAPGQGLEWIGWIFPGSGHTKYNENFKGKVTLTVDTSTSTVYMELSSLRSEDTAVYFCARGDRSALGYFDYWGQGTTVTVSS
VL: DIQLTQSPSSLSASVGDRVTITCTASSSVSSTYLHWYQQKPGKSPKLLIYSTSNLASGVPSRFSGSGSGTDYTLTISSLQPEDFATYYCHQYHRSPLTFGQGTKLEIK
For the molecule B2, the EC50 with human KLRB1 on CHO-K1 was found to be 5.39 nM; in the assay with human KLRB1 ECD [3] it was 0.0148 nM. Moreover, in assay [2], the binding result is recorded as “no binding”.

B3: Hu50A8F2-08 (antibody, V domains shown)
VH: QVQLVQSGAEVKKPGASVKVSCKASGYTFIDYYINWVRQAPGQGLEWMGWIFPGSGHTKYNENFKGKVTMTVDTSTSTVYMELSSLRSEDTAVYYCARGDRSALGYFDYWGQGTTVTVSS
VL: DIQLTQSPSSLSASVGDRVTITCTASSSVSSTYLHWYQQKPGKSPKLLIYSTSNLASGVPSRFSGSGSGTDYTLTISSLQPEDAATYYCHQYHRSPLTFGQGTKLEIK
With B3, the EC50 with human KLRB1 on CHO-K1 amounted to 5.44 nM; with human KLRB1 ECD [3], 0.0111 nM. The binding result in assay [2] is “no binding”.

B4: Hu50A8F2-16 (antibody, V domains shown)
VH: QVQLVQSGAEVKKPGASVKVSCKASGYTFIDYYINWVRQAPGQGLEWIGWIFPGSGHTKYNENFKGKVTLTVDTSTSTVYMELSSLRSEDTAVYFCARGDRSALGYFDYWGQGTTVTVSS
VL: DIQLTQSPSSLSASVGDRVTITCTASSSVSSTYLHWYQQKPGKSPKLLIYSTSNLASGVPSRFSGSGSGTDYTLTISSLQPEDAATYYCHQYHRSPLTFGQGTKLEIK
With B4, the half-maximal effective concentration (EC50) in the assay with human KLRB1 on CHO-K1 came out at 5.27 nM; in the assay with human KLRB1 ECD [3], 0.0103 nM. The binding result in assay [2] is on record as “no binding”.

B5: Hu50A8F2-05 (antibody, V domains shown)
VH: QVQLVQSGAEVKKPGASVKVSCKASGYTFIDYYINWVRQAPGQGLEWMGWIFPGSGHTKYNENFKGKVTMTVDTSTSTVYMELSSLRSEDTAVYYCARGDRSALGYFDYWGQGTTVTVSS
VL: DIQMTQSPSSLSASVGDRVTITCTASSSVSSTYLHWYQQKPGKAPKLLIYSTSNLASGVPSRFSGSGSGTDFTLTISSLQPEDFATYYCHQYHRSPLTFGQGTKLEIK
For the molecule B5, the figures for the EC50 in the assay with human KLRB1 on CHO-K1 and with human KLRB1 ECD [3] were 5.51 nM and 0.0183 nM, respectively. Also, the binding result in assay [2] is given as “no binding”.

B6: Hu50A8F2-07 (antibody, V domains shown)
VH: QVQLVQSGAEVKKPGASVKVSCKASGYTFIDYYINWVRQAPGQGLEWMGWIFPGSGHTKYNENFKGKVTMTVDTSTSTVYMELSSLRSEDTAVYYCARGDRSALGYFDYWGQGTTVTVSS
VL: DIQLTQSPSSLSASVGDRVTITCTASSSVSSTYLHWYQQKPGKSPKLLIYSTSNLASGVPSRFSGSGSGTDYTLTISSLQPEDFATYYCHQYHRSPLTFGQGTKLEIK
As to B6, the EC50 with human KLRB1 on CHO-K1 was 5.72 nM; with human KLRB1 ECD [3], 0.0174 nM. In addition, in assay [2], the binding result was “no binding”.

B7: Hu50A8F2-09 (antibody, V domains shown)
VH: QVQLVQSGAEVKKPGASVKVSCKASGYTFIDYYINWVRQAPGQGLEWMGWIFPGSGHTKYNENFKGKVTLTVDTSTSTVYMELSSLRSEDTAVYYCARGDRSALGYFDYWGQGTTVTVSS
VL: DIQMTQSPSSLSASVGDRVTITCTASSSVSSTYLHWYQQKPGKAPKLLIYSTSNLASGVPSRFSGSGSGTDFTLTISSLQPEDFATYYCHQYHRSPLTFGQGTKLEIK
In the case of B7, the EC50 came out at 5.4 nM with human KLRB1 on CHO-K1 and 0.0189 nM in the assay with human KLRB1 ECD [3]. In assay [2], the binding result is “no binding”.

B8: Hu50A8F2-10 (antibody, V domains shown)
VH: QVQLVQSGAEVKKPGASVKVSCKASGYTFIDYYINWVRQAPGQGLEWMGWIFPGSGHTKYNENFKGKVTLTVDTSTSTVYMELSSLRSEDTAVYYCARGDRSALGYFDYWGQGTTVTVSS
VL: DIQMTQSPSSLSASVGDRVTITCTASSSVSSTYLHWYQQKPGKAPKLLIYSTSNLASGVPSRFSGSGSGTDYTLTISSLQPEDFATYYCHQYHRSPLTFGQGTKLEIK
B8: the EC50 with human KLRB1 on CHO-K1 stood at 5.67 nM; in the assay with human KLRB1 ECD [3], 0.0187 nM. For the same molecule, the binding result in assay [2] was “no binding”.

B9: Hu50A8F2-14 (antibody, V domains shown)
VH: QVQLVQSGAEVKKPGASVKVSCKASGYTFIDYYINWVRQAPGQGLEWIGWIFPGSGHTKYNENFKGKVTLTVDTSTSTVYMELSSLRSEDTAVYFCARGDRSALGYFDYWGQGTTVTVSS
VL: DIQMTQSPSSLSASVGDRVTITCTASSSVSSTYLHWYQQKPGKAPKLLIYSTSNLASGVPSRFSGSGSGTDYTLTISSLQPEDFATYYCHQYHRSPLTFGQGTKLEIK
For B9, the results for the EC50 with human KLRB1 on CHO-K1 and with human KLRB1 ECD [3] were 5.12 nM and 0.0121 nM, respectively. The binding result in assay [2] is on record as “no binding”.

B10: Hu50A8F2-13 (antibody, V domains shown)
VH: QVQLVQSGAEVKKPGASVKVSCKASGYTFIDYYINWVRQAPGQGLEWIGWIFPGSGHTKYNENFKGKVTLTVDTSTSTVYMELSSLRSEDTAVYFCARGDRSALGYFDYWGQGTTVTVSS
VL: DIQMTQSPSSLSASVGDRVTITCTASSSVSSTYLHWYQQKPGKAPKLLIYSTSNLASGVPSRFSGSGSGTDFTLTISSLQPEDFATYYCHQYHRSPLTFGQGTKLEIK
For B10, the EC50 with human KLRB1 on CHO-K1 came to 5.06 nM; in the assay with human KLRB1 ECD [3], 0.0104 nM. For the same molecule, the binding result in assay [2] is given as “no binding”.

B11: Hu50A8F2-11 (antibody, V domains shown)
VH: QVQLVQSGAEVKKPGASVKVSCKASGYTFIDYYINWVRQAPGQGLEWMGWIFPGSGHTKYNENFKGKVTLTVDTSTSTVYMELSSLRSEDTAVYYCARGDRSALGYFDYWGQGTTVTVSS
VL: DIQLTQSPSSLSASVGDRVTITCTASSSVSSTYLHWYQQKPGKSPKLLIYSTSNLASGVPSRFSGSGSGTDYTLTISSLQPEDFATYYCHQYHRSPLTFGQGTKLEIK
Consider B11, for which the EC50 was 5.43 nM in the assay with human KLRB1 on CHO-K1 and 0.0144 nM in the assay with human KLRB1 ECD [3]. Also, the binding result in assay [2] was “no binding”.

B12: Hu50A8F2-12 (antibody, V domains shown)
VH: QVQLVQSGAEVKKPGASVKVSCKASGYTFIDYYINWVRQAPGQGLEWMGWIFPGSGHTKYNENFKGKVTLTVDTSTSTVYMELSSLRSEDTAVYYCARGDRSALGYFDYWGQGTTVTVSS
VL: DIQLTQSPSSLSASVGDRVTITCTASSSVSSTYLHWYQQKPGKSPKLLIYSTSNLASGVPSRFSGSGSGTDYTLTISSLQPEDAATYYCHQYHRSPLTFGQGTKLEIK
Consider B12, for which the EC50 with human KLRB1 on CHO-K1 was 5.77 nM; in the assay with human KLRB1 ECD [3] it was 0.014 nM. Also, in assay [2], the binding result is recorded as “no binding”.

B13: Hu50A8F2-02 (antibody, V domains shown)
VH: QVQLVQSGAEVKKPGASVKVSCKASGYTFIDYYINWVRQAPGQGLEWMGWIFPGSGHTKYNENFKGRVTMTRDTSTSTVYMELSSLRSEDTAVYYCARGDRSALGYFDYWGQGTTVTVSS
VL: DIQMTQSPSSLSASVGDRVTITCTASSSVSSTYLHWYQQKPGKAPKLLIYSTSNLASGVPSRFSGSGSGTDYTLTISSLQPEDFATYYCHQYHRSPLTFGQGTKLEIK
In the case of B13, the concentration giving a half-maximal response (EC50) came to 5.81 nM with human KLRB1 on CHO-K1 and 0.0167 nM in the assay with human KLRB1 ECD [3]. In addition, the binding result in assay [2] is reported as “no binding”.

B14: 5A11D10 chimeric (antibody, V domains shown)
VH: DVQLQESGPGQVKPSQSLSLTCTVTGYSLTSDFAWNWIRQFPGNKLEWMGDIRYSGSTDYNPSLKTRSSITRDTSKNQFFLHLNSVTTEDTATYYCARGGYYGYDEGYPMDYWGQGTSVTVSS
VL: NIVLTQSPASLAVSLGQRATISCRASESVDVYGNSFMHWYQQKAGQPPKLLIYLAFNLKSGVPARFSGSGSRTDFTLTIDPVEADDAATYYCQQNNEDPFTFGSGTKLEIK
Consider B14, for which the Kd with human KLRB1 ECD [1] was 0.0591 nM. This lies in the picomolar range.

B15: 9C10G11 (antibody, V domains shown)
VH: QVQLKESGPGLVAPSQSLSITCTVSGFSLTGYGVNWVRQPPGKGLEWLGMIWGDGSTDYNSALKSRLSISKDNSKSQVFLKMNSLQTDDTARYYCARTYNNYHYWYFDVWGAGTTVTVSS
VL: DIQMTQSPASLSASVGETVTITCRASGNIHNYLAWYQQKQGKSPQLLVYNAKTLADGVPSRFSGSGSGTQYSLKINSLQPEDFGSYYCQHFWSTPYTFGGGTKLEIK
B15: binding with human KLRB1 ECD [1] was put at a Kd of 14.8 nM. This Kd is about 250-fold higher than that of the molecule before.

B16: 39C5D6 (antibody, V domains shown)
VH: QVQLKESGPGLVAPSQSLSITCTVSGFSLTDYGVNWVRQTPGKGLEWLGMIWGDGSTDYNLPLKSRLSITKDNSKSQVFLKMNSLQTDDTARYYCARTYANYHYWYFDVWGAGTTVTVSS
VL: DIQMTQSPASLSASVGETVTITCRASGNIHNYLAWYQQKQGKSPQLLVYNAKTLEDGVPSRFSGSGSGTQYSLKINSLQPDDFGNYFCQHFWSTPYTFGGGTKLEIK
Turning to B16, the Kd with human KLRB1 ECD [1] came to 1.21 nM.

B17: 37G6A7 (antibody, V domains shown)
VH: QVQLKESGPGLVAPSQSLSITCTVSGFSLTDYGVNWVRQPPGKGLEWLGMIWGDGSTDYNSALKSRLTISKDNSKSQVFLKMNSLQTDDTARYYCARTYGTYHYWYFDVWGAGTTVTVSS
VL: DIQMTQSPASLSASVGETVTITCRASGNIHNYLAWYQQKQGKSPQLLVYIAKTLADGVPSRFSGSGSGTQYSLKINSLQPEDFGTYYCQHFWSTPYTFGGGTKLEIK
The molecule B17 gave a Kd in the assay with human KLRB1 ECD [1] of 23.3 nM. Against the preceding molecule, the Kd is about 19-fold higher.

B18: 52G9B12B5 chimeric (antibody, V domains shown)
VH: QVQLQQSGAELMQPGTSVKIPCKATGYTFSSFWMEWVKQRPGHGLEWIGEIFPGSGSTNYNEKFKGKATFTADTSSNTAYMQLSSLTSEDSAVYYCATLITTGLTYWGQGTLVTVSA
VL: NIVMTQSHKFMSTSVGDRVSITCKASQDVNTAVAWYQQIPGRSPKLLIYWASTRHTGVPDRFTGSGSGTDYTLTISSVQAEDLAFYYCQQHYRIPFTFGAGTKLELK
The molecule B18 had a Kd in the assay with human KLRB1 ECD [1] of 4.4 nM. Compared with the last molecule, the Kd is about 5.3-fold lower.

One may read the Kd as the equilibrium constant for the complex coming apart. Read a high Kd as weaker binding. For orientation: EC50 means the midpoint of the concentration-response curve. Read a low EC50 as greater potency.
